# Test results as given in patent US10745461B2, “Pulsed introduction of low-dose RANKL as a therapy for diet-induced atherosclerosis” (Saint Louis University, priority 2015, dated 2020).
# “Also recorded” adds a separate entry of the source.
# B1: receptor activator of NF-κB ligand (protein, UniProt O35235 139-316, looked up)
# Tumor necrosis factor ligand …: FSGAPAMMEGSWLDVAQRGKPEAQPFAHLTINAASIPSGSHKVTLSSWYHDRGWAKISNMTLSNGKLRVNQDGFYYLYANICFRHHETSGSVPTDYLQLMVYVVKTSIKIPSSHNLMKGGSTKNWSGNSEFHFYSINVGGFFKLRAGEEISIQVSNPSLLDPDQDATYFGAFKVQDID
# modifications: GST tag
# Columns and labels:
# [1] = tested on: FoxP3+ CD8 T-cells (TcREG); experiment: In vivo TcREG induction: GFP negative CD8 T-cells adoptively transferred into OT-I Rag-/- mice
# Method: FIGS. 1A, 1B and 1C indicate that TcREG are induced by activated osteoclasis. […] In the absence of RANK L treatment, very low level of conversion was observed after three days. […] ZA was administered intravenously one week prior to adoptive transfer of CD8 T-cells.
# It was first determined the dose of RANKL that produced the maximal number FoxP3^+ CD8 T-cells in the bone marrow. RANKL was administered into FoxP3-GFP reporter mice at various doses for two consecutive days. Fifty hours after first dose, the mice were sacrificed and the numbers of CD8 T-cells that were GFP positive cells in the bone marrow were measured. […] The increased levels of FoxP3 in the bone marrow could either be due to recruitment of TcREG to the bone marrow or induction of FoxP3 expression in cells that were FoxP3 negative. To test for induction FACS sorted the GFP negative population of CD8 (Thy 1.2+ that were CD44 negative or naïve) from the spleens and bone marrow to high purity (FIG. 1C first panel) and adoptively transferred them into congenically marked (Thy 1.1) OT-I Rag^−/− mice. […] In the absence of RANKL administration low levels […] CD8 T-cell were detected (FIGS. 1B and C second panel), but RANKL administration (0.125 mg/kg) yielded ˜1% […] Thy 1.2 T-cells (FIGS. 1B and 1C third panel). […]
# [2] = tested on: ovariectomized mice; experiment: Low dose RANKL in ovariectomized mice (TcREG, serum CTX, μCT, bone formation); type: in vivo
# Method: Representative FACS contour plots are shown on the first and second panel and the distribution (N=8 mice per group) is shown in the third panel. […] In these experiments (panels C-F), we used ex vivo generated TcREG as a positive control/comparator. […] Arrows are shown to emphasize the distance between dyes.
# it was then determined that RANKL induces functional TcREG in ovariectomized mice. Having shown that RANKL could restore the ability of osteoclasts to induce FoxP3 expression in the presence of TNFα in vitro, we tested the ability of RANKL to induce TcREG in ovariectomized mice, as proof of principle for de-repression by increased levels of RANKL in pro-inflammatory environment. Again, a dose of RANKL that induced the highest levels of TcREG in vivo (FIG. 1A) was used. Administration of love dose RANKL to ovariectomized mice increased TcREG numbers by an average of 1.8-fold (FIG. 6A). To determine whether this increase in TcREG numbers affected bone resorption in ovariectomized mice, levels of bone resorption and bone formation rates in these (low-dose) RANKL-treated mice were measured. As it has been previously established that ex vivo generated OC-iTcREG limit bone resorption, increased bone mass, decreased activated effector T-cells, and increases bone formation and mineral apposition rates, this treatment was used as a benchmark in these experiments.
# Bilateral ovariectomy was performed on 12-14 week old mice. Mice were anesthetized using 2.5% isoflurane to initiate anesthesia, and 1% for maintenance. The ovaries were accessed through a single incision in the skin, and exteriorized through muscle wall on each side. Each ovary was clamped using hemostat and removed by a single cut. Skin staples (3M) were used to close the skin incision. To minimize discomfort post-surgery, 0.025 mg/kg Buprenorphine was administered subcutaneously. Zoledronate (Selleck Chemicals) was administered at 30 μg/kg via tail vein.
# Food was withdrawn 6 to 10 hours prior to bleeding. Peripheral blood (100 to 200 μL) obtained via sub-mandibular vein, was allowed to clot for 2 hours at room temperature and serum collected by spinning down the cell pellet. Serum C-terminal telopeptide of type 1 collagen (serum CTX) was measured using ELISA according to the manufacturer's instructions (Immunodiagnostic Systems, Plc)
# The bones were scanned in μCT40 (Scanco Medical) at 55 kVp, 145 μA, and resolution of 16 μm. Gauss sigma of 1.2, Gauss support of 2, lower threshold of 237, and upper threshold of 1000 were used for all the analysis. Regions of interest were selected 50 slices below the growth plate of the proximal tibia to evaluate the trabecular compartment. Bone mineral density was obtained by quantitative μCT using Scanco Phantoms for calibration^49. All μCT data and bone histomorphometry data was collected and analyzed by C.Y, who was blinded to the treatment performed on the mouse samples.
molecule,measurement,setting,value
B1,TcREG induction by RANKL,"[1]; 0.125 mg/kg, 50 hrs after RANKL treatment, 3 days after T-cell transfer",robustly induced TcREG
same,GFP+ Thy 1.2 T-cells after RANKL administration,"[1]; RANKL 0.125 mg/kg, OT-I Rag-/- recipients",~1%
same,osteoclasts occupying bone,[2],fewer osteoclasts occupying bone
same,overall effectiveness of treatment,[2],more effective treatment than OC-iTcREG and the bisphosphonate Zoledronic acid by all measurable criteria
same,bone mass and bone mineral density (μCT),[2]; comparator OC-iTcREG,more bone mass and bone mineral density relative to the OC-iTcREG treated mice
same,serum CTX,"[2]; comparator OC-iTcREG, listed as low dose RANKL",lower levels of serum CTX compared to mice treated with OC-iTcREG
same,serum CTX,"[2]; comparator OC-iTcREG, listed as low-dose RANKL",serum CTX levels decreased
same,bone formation and mineral apposition rates,"[2]; comparators OC-iTcREG, Zoledronate, listed as low dose RANKL",to a greater extent than Zoledronate and ex vivo generated TcREG; also recorded: increase bone formation and mineral apposition rates than OC-iTcREG treated mice
same,TcREG induction in bone marrow,[2]; intraperitoneal 0.125 mg/kg,induced TcREG in the bone marrow of ovariectomized mice
same,increase in TcREG numbers (average),[2]; low dose RANKL,1.8 fold
